Series [1] has as its target T1, PhPr-Leu-ALys-CH═CH-COOEt.
T1 chain: LK

Series [2] addresses T2, Cbz-Ala-Ala-AAsn-CH═CH-COOEt.
T2 chain: AAN

For series [3], the target named is T3, Cbz-Ala-Ala-AAsn-CH═CH-CONHCH2CH2Ph.
T3 chain: AAN

The target in series [4] is T4, Cbz-Ala-Ala-AAsn-CH═CH-CON(Bzl)2.
T4 chain: AAN

Series [5] concerns the target T5, PhPr-Leu-AOrn-CH═CH-COOEt.
T5 chain: LX

Series [6] has as its target T6, Cbz-Ala-Ala-AAsn-CH═CH-CON(CH3)Bzl.
T6 chain: AAN

Series [7] has as its target T7, Cbz-Ala-Ala-AAsn-CH═CH-CO-indoline.
T7 chain: AAN

Series [8] has as its target T8, Cbz-Ala-Ala-AAsn-CH═CH-CON(Bzl)-2-CH2-Napth.
T8 chain: AAN

Series [9] addresses T9, Cbz-Ala-Ala-AAsn-CH═CH-CON(Bzl)-1-CH2-Napth.
T9 chain: AAN

B1: Caspase-3 (protein)
chain: SGISLDNSYKMDYPEMGLCIIINNKNFHKSTGMTSRSGTDVDAANLRETFRNLKYEVRNKNDLTREEIVELMRDVSKEDHSKRSSFVCVLLSHGEEGIIFGTNGPVDLKKITNFFRGDRCRSLTGKPKLFIIQACRGTELDCGIETDSGVDDDMACHKIPVEADFLYAYSTAPGYYSWRNSKDGSWFIQSLCAMLKQYADKLEFMHILTRVNRKVATEFESFSFDATFHAKKQIPCIVSMLTKELYFYH
Consider B1, for which the “kobs/[I]” value in series [1], in series [2], in series [3], in series [4], in series [5] and in series [6] was “NI” throughout. In addition, the “kobs/[I]” value in [7] is “NI”.

B2: calpain I from porcine erythrocytes (protein)
chain: MAEEVITPVYCTGVSAQVQKLRAKELGLGRHENAIKYLGQDYEQLRAHCLQSGSLFRDEAFPPVPQSLGFKELGPNSSKTYGVKWKRPTELFSNPQFIVDGATRTDICQGALGDCWLLAAIASLTLNDTLLHRVVPHGQSFQNGYAGIFHFQLWQFGEWVDVVVDDLLPTKDGKLVFVHSAQGNEFWSALLEKAYAKVNGSYEALSGGSTSEGFEDFTGGVTEWYELRKAPSDLYSIILKALERGSLLGCSIDISSVLDMEAVTFKKLVKGHAYSVTGAKQVNYQGQMVNLIRMRNPWGEVEWTGAWSDGSSEWNGVDPYQRDQLRVRMEDGEFWMSFRDFLREFTRLEICNLTPDALKSQRVRNWNTTLYEGTWRRGSTAGGCRNYPATFWVNPQFKIRLEETDDPEDDYGGRESGCSFVLALMQKHRRRERRFGRDMETIGFAVYEVPPELVGQPVHLKRDFFLANASRARSEQFINLREVSTRFRLPPGEYVVVPSTFEPNKEGDFVLRFFSEKKAGTQELDDQVQAILPDEQVLSEEEIDENFKALFRQLAGEDMEISVRELRTILNRIISKHKDLRTKGFSLESCRSMVNLMDRDGNGKLGLVEFNILWNRIRNYLSIFRKFDLDKSGSMSAYEMRMAIESAGFKLNKKLFELIITRYSEPDLAVDFDNFVCCLVRLETMFRFFKTLDTDLDGVVTFDLFKWLQLTMFA
As for B2, the “kobs/[I]” value in series [1], in series [2], in series [3], in series [4], in series [5] and in series [6] was “NI” in each case. The “kobs/[I]” value in [7] is on record as “NI”.

B3: Caspase-8 (protein)
chain: SESQTLDKVYQMKSKPRGYCLIINNHNFAKAREKVPKLHSIRDRNGTHLDAGALTTTFEELHFEIKPHDDCTVEQIYEILKIYQLMDHSNMDCFICCILSHGDKGIIYGTDGQEAPIYELTSQFTGLKCPSLAGKPKVFFIQACQGDNYQKGIPVETDSEEQPYLEMDLSSPQTRYIPDEADFLLGMATVNNCVSYRNPAEGTWYIQSLCQSLRERCPRGDDILTILTEVNYEVSNKDDKKNMGKQMPQPTFTLRKKLVFPSD
As to B3, the “kobs/[I]” value in [1], in series [2], in series [3], in series [4], in series [5] and in [6] was “NI” each time. Besides, the “kobs/[I]” value in [7] is “NI”.

B4: schistosome legumain SmAE (Schistosoma mansoni asparaginyl endopeptidase) (protein)
chain: VSDNNKWAVLVAGSNGYPNYRHQADVCHAYHVLRSKGIKPEHIITMMYDDIAYNLMNPFPGKLFNDYNHKDWYEGVVIDYRGKNVNSKTFLKVLKGDKSAGGKVLKSGKNDDVFIYFTDHGAPGLIAFPDDELYAKEFMSTLKYLHSHKRYSKLVIYIEANESGSMFQQILPSNLSIYATTAANSTECSYSTFCGDPTITTCLADLYSYNWIVDSQTHHLTQRTLDQQYKEVKRETDLSHVQRYGDTRMGKLYVSEFQGS
As to B4, the kobs/[I] in series [8] came to 6100 M⁻¹ s⁻¹; in [2] it was 17400 M⁻¹ s⁻¹; in series [4], 5800 M⁻¹ s⁻¹; in series [9], 6180 M⁻¹ s⁻¹.

B5: Papain (protein)
chain: IPEYVDWRQKGAVTPVKNQGSCGSCWAFSAVVTIEGIIKIRTGNLNEYSEQELLDCDRRSYGCNGGYPWSALQLVAQYGIHYRNTYPYEGVQRYCRSREKGPYAAKTDGVRQVQPYNEGALLYSIANQPVSVVLEAAGKDFQLYRGGIFVGPCGNKVDHAVAAVGYGPNYILIKNSWGTGWGENGYIRIKRGTGNSYGVCGLYTSSFYPVKN
In the case of B5, the “kobs/[I]” value is “NI” in series [1]; “NI” in series [2]; 12 M⁻¹ s⁻¹ in series [3]; 1 M⁻¹ s⁻¹ in series [4]; “NI” in series [5]; “NI” in series [6]. In addition, the “kobs/[I]” value in series [7] is “NI”.

B6: Caspase-6 (protein)
chain: AFYKREMFDPAEKYKMDHRRRGIALIFNHERFFWHLTLPERRGTCADRDNLTRRFSDLGFEVKCFNDLKAEELLLKIHEVSTVSHADADCFVCVFLSHGEGNHIYAYDAKIEIQTLTGLFKGDKCHSLVGKPKIFIIQACRGNQHDVPVIPLDVVDNQTEKLDTNITEVDAASVYTLPAGADFLMCYSVAEGYYSHRETVNGSWYIQDLCEMLGKYGSSLEFTELLTLVNRKVSQRRVDFCKDPSAIGKKQVPCFASMLTKKLHFFPKSN
For the protein B6, the “kobs/[I]” value in series [1], in [2], in series [3], in [4], in [5] and in series [6] was “NI” throughout. Besides, the “kobs/[I]” value in series [7] is “NI”.
